Consider three molecules from US20040038249A1, “Inducible expression systems employing PPAR transcriptional activators” (priority 2002, published 2004).

For data set [1] the following is noted: form not soluble in water, doses between 5 and 50 mg/kg, for example 30 mg/kg; cited from earlier work.
Data set [2] has as its system PPAR Response Elements (PPREs) of wt origin or mutated response sequence (CYP4A6m1). Put plainly: Luciferase reporter cotransfection with PPAR polypeptide and response element plasmids. It counts as cell-based, murine. To be noted: for luciferase activity from response elements: C2C12 murine myoblasts, untreated or treated with BRL49653 PPARγ ligand, panel of wt and mutated response elements. The source says: FIG. 2: Comparison of PPAR polypeptides derived from human PPARγ2 receptor. C2C12 murine myoblasts were cotransfected with a mixture of 3 different plasmids: (i) a plasmid expressing the wt or a mutated hPPARγ2; (ii) a plasmid in which the luc+ gene expression is driven by an inducible target sequence made of multiple PPAR Response Elements (PPREs) of wt origin (CYP4A6, CYP4A1 and HMG) or mutated response sequence (CYP4A6m1=SEQ ID No.: 26, CYP4A6m2=control with sequence 5′ GAACT AGGGCA A AGAACA 3′ (SEQ ID No.: 41), CYP4 μm=SEQ ID No.: 22, and HMGm=SEQ ID No.: 34); and (iii) a plasmid expressing the Renilla luciferase gene as an internal control of transfection efficiency. Measurement of luciferase activity for untreated cells (white bars) or cells treated with the BRL49653 PPARγ ligand (grey bars) is shown for each response element (left Y-axis). The relative induction level (x fold induction) resulting from ligand treatment is also shown (dots and right Y-axis)). Nomenclature for the PPAR amino acid sequences used refers to the first, second, and fifth (bolded) amino acid in the P-box of the Zinc finger domain, where wild type is EGCKG (see box in FIG. 1, panel B).
FIG. 3: DNA-binding specificity of the GSV mutant. C2C12 murine myoblasts were cotransfected with a mixture of 3 different plasmids: (i) a plasmid expressing the wt EGG or the GSV mutated hPPARγ2; (ii) a plasmid in which the luc+ gene expression is driven by an inducible target sequence made of multiple wt PPREs (apoAII, BIF, PPREcon, CYP4A1, CYP4A6, FABP, HMG and MEP cloned in sense (-S) or anti-sense (-AS) orientation) or the mutated response element (noted as “m” sequences in FIG. 6, such as CYP4A6m1=SEQ ID No.: 26); and (iii) a plasmid expressing the Renilla luciferase gene as an internal control of transfection efficiency. Expression levels for untreated cells (white) or cells treated with the BRL49653 PPARγ ligand (grey) are shown in left Y-axis and the relative induction (x fold induction) due to ligand treatment is shown in right Y-axis (dots).
One skilled in the art is familiar with protocols for transfecting plasmids into cell or infecting cells with virus. As an example, murine myoblasts (C2C12; ATCC: CRL1772) and human HEK293 (ATCC: CRL1573) cells are seeded in 24-well plates (7.5×10^4 cells per well) and grown for 24 h in DMEM supplemented with 10% FCS. Cells are washed in DMEM without serum and transfected in triplicate by adding to the cells 0.5 ml of OptiMEM mixed with various quantities of reporter gene (AP or luc) encoding plasmid, supplemented to 500 ng with a carrier plasmid and LipofectAMINE (2 μl for C2C12, 3 μl for HEK293). Five hours later, the medium containing the DNA and the LipofectAMINE is replaced by 1 ml of DMEM supplemented with FCS (2% for C2C12, 10% for HEK293). […]
Background: Reporter assays use an easily measured gene product as a stand-in for the process of interest.

Take `CN(CCOc1ccc(CC2SC(=O)NC2=O)cc1)c1ccccn1` (centres unmarked) [BRL49653, rosiglitazone]: the plasma concentration result in data set [1] is “about 15 μg/ml”.

B1: GSG: human PPARγ2 with GSCKG substitutions in the P-box (SEQ ID NO: 7) (protein)
chain: MGETLGDSPIDPESDSFTDTLSANISQEMTMVDTEMPFWPTNFGISSVDLSVMEDHSHSFDIKPFTTVDFSSISTPHYEDIPFTRTDPVVADYKYDLKLQEYQSAIKVEPASPPYYSEKTQLYNKPHEEPSNSLMAIECRVCGDKASGFHYGVHACGSCKGFFRRTIRLKLIYDRCDLNCRIHKKSRNKCQYCRFQKCLAVGMSHNAIRFGRMPQAEKEKLLAEISSDIDQLNPESADLRALAKHLYDSYIKSFPLTKAKARAILTGKTTDKSPFVIYDMNSLMMGEDKIKFKHITPLQEQSKEVAIRIFQGCQFRSVEAVQEITEYAKSIPGFVNLDLNDQVTLLKYGVHEIIYTMLASLMNKDGVLISEGQGFMTREFLKSLRKPFGDFMEPKFEFAVKFNALELDDSDLAIFIAVIILSGDRPGLLNVKPIEDIQDNLLQALELQLKLNHPESSQLFAKLLQKMTDLRQIVTEHVQLLQVIKKTETDMSLHPLLQEIYKDLY
modifications: PPAR gamma 2 recombinant polypeptide comprising GSCKG in Zinc finger domain
Turning to B1, the “luciferase activity from response elements” value in data set [2] is “particularly strong and selective”.

B2: GSV: human PPARγ2 with GSCKV substitutions in the P-box of the Zinc finger domain (SEQ ID NO: 8) (protein)
chain: MGETLGDSPIDPESDSFTDTLSANISQEMTMVDTEMPFWPTNFGISSVDLSVMEDHSHSFDIKPFTTVDFSSISTPHYEDIPFTRTDPVVADYKYDLKLQEYQSAIKVEPASPPYYSEKTQLYNKPHEEPSNSLMAIECRVCGDKASGFHYGVHACGSCKVFFRRTIRLKLIYDRCDLNCRIHKKSRNKCQYCRFQKCLAVGMSHNAIRFGRMPQAEKEKLLAEISSDIDQLNPESADLRALAKHLYDSYIKSFPLTKAKARAILTGKTTDKSPFVIYDMNSLMMGEDKIKFKHITPLQEQSKEVAIRIFQGCQFRSVEAVQEITEYAKSIPGFVNLDLNDQVTLLKYGVHEIIYTMLASLMNKDGVLISEGQGFMTREFLKSLRKPFGDFMEPKFEFAVKFNALELDDSDLAIFIAVIILSGDRPGLLNVKPIEDIQDNLLQALELQLKLNHPESSQLFAKLLQKMTDLRQIVTEHVQLLQVIKKTETDMSLHPLLQEIYKDLY
modifications: PPAR gamma 2 recombinant polypeptide comprising GSCKV in Zinc finger domain
As for B2, the “relative induction level resulting from ligand treatment” value in data set [2] (C2C12, BRL49653 treatment, CYP4A6m1 response element) is listed as “highest induction levels”. The “luciferase activity from response elements” value is given as “highly selective” in data set [2] and “specific for the CYP4A6m1” in data set [2] (listed as PPARγ2 (GSV)).
